One assay concerns the target T1, Cynomolgus monkey BCMA (cynomolgus monkey).
T1 construct: Soluble analyte in SPR; also called cyBCMA; Cyno BCMA
Briefly: SPR, IgG immobilised, cyno BCMA analyte. The procedure:
(§1) All experiments were performed on a Bio-Rad Proteon XPR36 surface Plasmon resonance biosensor (Bio-Rad, Hercules, Calif.). […] The analysis temperature for the immobilization was 25° C. and the running buffer was HBS-T+(10 mM HEPES, 150 mM NaCl, 0.05% Tween-20, pH 7.4). Channels were activated in the analyte (horizontal) direction by injecting a mixture of 1 mM ECD and 0.25 mM NHS for 3 minutes at a flow rate of 30 μL/min. IgGs were immobilized on the activated spots by injecting them in the ligand (vertical) direction at 20 μg/mL in 10 mM Acetate pH 4.5 buffer for 1.5 minutes at […]. The activated surfaces were blocked by injecting 1M ethanolamine, pH 8.5 in the analyte direction for 3 minutes at 30 μL/min.
(§2) The analysis temperature for the BCMA binding analysis was 37° C. or 25° C. in a running buffer of HBS-T+, supplemented with 1 mg/mL BSA. A kinetic titration method was employed for the interaction analysis as described in Abdiche, et al. Human BCMA (huBCMA) or cynomolgus monkey BCMA (cyBCMA) analyte was injected in the analyte direction using a series of injections from low to high concentration. The concentrations used were 0.08 nM, 0.4 nM, 2 nM, 10 nM and 50 nM (a 5-membered series, with a 5-fold dilution factor and top concentration of 50 nM). The association time for a given analyte dilution was two minutes. Immediately after the 50 nM BCMA injection, dissociation was monitored for 2 hours.
(§3) The sensorgrams were double-referenced and fit to a 1:1 Langmuir with mass transport kinetic titration model in BIAevaluation Software version 4.1.1 (GE Lifesciences, Piscataway, N.J.).

For assay [1], the target named is T2, Human BCMA (human, UniProt Q02223 1-54, limits assumed).
T2 construct: also called huBCMA; B-cell maturation antigen
T2 sequence (looked up): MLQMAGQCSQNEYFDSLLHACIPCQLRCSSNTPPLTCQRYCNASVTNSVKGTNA
Briefly: SPR, IgG immobilised, human BCMA analyte. The procedure:
as §1, §2, §3
For orientation: In SPR one partner is held on a chip, and binding of the other changes the refractive index at the surface.

For assay [2], the target named is T3, Human BCMA (human, UniProt Q02223 1-54, limits assumed).
T3 construct: Soluble analyte in SPR; construct not described; also called huBCMA; B-cell maturation antigen
T3 sequence (looked up): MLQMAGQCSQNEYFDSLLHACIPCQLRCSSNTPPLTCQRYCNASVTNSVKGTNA
In words: SPR, IgG immobilised, 37 C. On the procedure: as §1, §2, §3

B1: COMBO_Rd4_0.6nM_C21 (antibody, V domains shown)
VH: EVQLLESGGGLVQPGGSLRLSCAASGFTFSSYPMSWVRQAPGKGLEWVSAIGGSGGSLPYADSVKGRFTISRDNSKNTLYLQMNSLRAEDTAVYYCARYWPMDSWGQGTLVTVSS
VL: EIVLTQSPGTLSLSPGERATLSCRASQSVSSSYLAWYQQKPGQAPRLLMYDASIRATGIPDRFSGSGSGTDFTLTISRLEPEDFAVYYCQQYQSWPLTFGQGTKVEIK
notes: IgG
Take B1: in the assay with Cynomolgus monkey BCMA, the Kd stood at 0.084 nM, the koff amounted to 0.000304 s⁻¹ and the kon came to 3.63e+06 M⁻¹ s⁻¹. Besides, in the assay with Human BCMA [1], the Kd turned out to be 0.009 nM, the koff came out at 0.000115 s⁻¹ and the kon was 1.34e+07 M⁻¹ s⁻¹.

B2: A02_Rd4_0.6nM_C01 (antibody, V domains shown)
VH: EVQLLESGGGLVQPGGSLRLSCAASGFTFSSYAMNWVRQAPGKGLEWVSAILSSGGSTYYADSVKGRFTISRDNSKNTLYLQMNSLRAEDTAVYYCARYWPMDIWGQGTLVTVSS
VL: EIVLTQSPGTLSLSPGERATLSCRGGQSVSSSYLAWYQQKPGQAPRLLMYDASIRATGIPDRFSGSGSGTDFTLTISRLEPEDFAVYYCQQYQSWPLTFGQGTKVEIK
notes: IgG; also called P5AC1
In the assay with Cynomolgus monkey BCMA, B2 returned a Kd of 0.655 nM, a koff of 0.00157 s⁻¹ and a kon of 2.39e+06 M⁻¹ s⁻¹. In the assay with Human BCMA [1], the Kd worked out at 0.193 nM, the koff was 0.000915 s⁻¹ and the kon turned out to be 4.74e+06 M⁻¹ s⁻¹.

B3: A02_Rd4_6nM_C03 (antibody, V domains shown)
VH: EVQLLESGGGLVQPGGSLRLSCAASGFTFSSYAMNWVRQAPGKGLEWVSAISDSGGSTYYADSVKGRFTISRDNSKNTLYLQMNSLRAEDTAVYYCARYWPMDIWGQGTLVTVSS
VL: EIVLTQSPGTLSLSPGERATLSCRASQSVSNLYLAWYQQKPGQAPRLLMYDASIRATGIPDRFSGSGSGTDFTLTISRLEPEDFAVYYCQQYQGWPLTFGQGTKVEIK
notes: IgG
Take B3: in the assay with Cynomolgus monkey BCMA, the affinity, expressed as Kd, was 0.158 nM; the koff amounted to 0.000185 s⁻¹; the kon stood at 1.17e+06 M⁻¹ s⁻¹. In the assay with Human BCMA [1], this molecule yielded a Kd of 0.075 nM, a koff of 0.000126 s⁻¹ and a kon of 1.69e+06 M⁻¹ s⁻¹.

B4: A02_Rd4_0.6nM_C10 (antibody, V domains shown)
VH: EVQLLESGGGLVQPGGSLRLSCAASGFTFSSYAMNWVRQAPGKGLEWVSAISGWGGSLPYADSVKGRFTISRDNSKNTLYLQMNSLRAEDTAVYYCARYWPMDSWGQGTLVTVSS
VL: EIVLTQSPGTLSLSPGERATLSCRASQSVSAQYLAWYQQKPGQAPRLLMYDASIRATGIPDRFSGSGSGTDFTLTISRLEPEDFAVYYCQQYQRWPLTFGQGTKVEIK
notes: IgG
In the assay with Cynomolgus monkey BCMA, B4 had a Kd of 1.84 nM, a koff of 0.00163 s⁻¹ and a kon of 883000 M⁻¹ s⁻¹. Moreover, in the assay with Human BCMA [1], the Kd was 0.129 nM, the koff was determined as 0.000296 s⁻¹ and the kon stood at 2.3e+06 M⁻¹ s⁻¹.

B5: A02_Rd4_0.6nM_C26 (antibody, V domains shown)
VH: EVQLLESGGGLVQPGGSLRLSCAASGFTFSSYAMNWVRQAPGKGLEWVSAILMSGGSTYYADSVKGRFTISRDNSKNTLYLQMNSLRAEDTAVYYCARYWPMSLWGQGTLVTVSS
VL: EIVLTQSPGTLSLSPGERATLSCGPSQSVSSSYLAWYQQKPGQAPRLLMYDASIRATGIPDRFSGSGSGTDFTLTISRLEPEDFAVYYCQQYQSWPLTFGQGTKVEIK
notes: IgG
In the assay with Cynomolgus monkey BCMA, B5 registered a Kd of 0.941 nM, a koff of 0.00256 s⁻¹ and a kon of 2.71e+06 M⁻¹ s⁻¹. In the assay with Human BCMA [1], the Kd was 0.061 nM, the koff amounted to 0.000443 s⁻¹ and the kon was determined as 7.26e+06 M⁻¹ s⁻¹.

B6: A02_Rd4_0.6nM_C09 (antibody, V domains shown)
VH: EVQLLESGGGLVQPGGSLRLSCAASGFTFSSYAMNWVRQAPGKGLEWVSAISDSGGSMWYADSVKGRFTISRDNSKNTLYLQMNSLRAEDTAVYYCARYWPMSLWGQGTLVTVSS
VL: EIVLTQSPGTLSLSPGERATLSCRASQSVSSSYLAWYQQKPGQAPRLLMYDASIRATGIPDRFSGSGSGTDFTLTISRLEPEDFAVYYCQQYQSWPLTFGQGTKVEIK
notes: IgG
On to B6, for which, in the assay with Cynomolgus monkey BCMA, the Kd came to 0.082 nM, the koff turned out to be 0.000174 s⁻¹ and the kon was 2.13e+06 M⁻¹ s⁻¹. In the assay with Human BCMA [1], this molecule displayed a Kd of 0.018 nM, a koff of 9.75e-05 s⁻¹ and a kon of 5.5e+06 M⁻¹ s⁻¹.

B7: A02_Rd4_0.6nM_C06 (antibody, V domains shown)
VH: EVQLLESGGGLVQPGGSLRLSCAASGFTFSSYAMNWVRQAPGKGLEWVSAISDSGGSAWYADSVKGRFTISRDNSKNTLYLQMNSLRAEDTAVYYCARYWPMSLWGQGTLVTVSS
VL: EIVLTQSPGTLSLSPGERATLSCRASQSVSVLYLAWYQQKPGQAPRLLMYDASIRATGIPDRFSGSGSGTDFTLTISRLEPEDFAVYYCQQYQRWPLTFGQGTKVEIK
notes: IgG
In the assay with Cynomolgus monkey BCMA, B7 displayed a Kd of 0.058 nM, a koff of 0.000105 s⁻¹ and a kon of 1.81e+06 M⁻¹ s⁻¹. For the same molecule, in the assay with Human BCMA [1], binding was characterised by a dissociation constant (Kd) of 0.021 nM, the koff is 7.37e-05 s⁻¹ and the kon is 3.49e+06 M⁻¹ s⁻¹.

B8: A02_Rd4_0.6nM_C03 (antibody, V domains shown)
VH: EVQLLESGGGLVQPGGSLRLSCAASGFTFSSYAMNWVRQAPGKGLEWVSAISDSGGSKWYADSVKGRFTISRDNSKNTLYLQMNSLRAEDTAVYYCARYWPMSLWGQGTLVTVSS
VL: EIVLTQSPGTLSLSPGERATLSCRASQSVSSSYLAWYQQKPGQAPRLLMYDASIRATGIPDRFSGSGSGTDFTLTISRLEPEDFAVYYCQQYFTWPLTFGQGTKVEIK
notes: IgG
Regarding B8, in the assay with Cynomolgus monkey BCMA, the Kd came to 0.201 nM, the koff worked out at 0.000426 s⁻¹ and the kon turned out to be 2.12e+06 M⁻¹ s⁻¹. Further, in the assay with Human BCMA [1], the Kd turned out to be 0.043 nM, the koff is 0.000182 s⁻¹ and the kon is 4.27e+06 M⁻¹ s⁻¹.

B9: A02_Rd4_6nM_C01 (antibody, V domains shown)
VH: EVQLLESGGGLVQPGGSLRLSCAASGFTFSSYAMNWVRQAPGKGLEWVSAITASGGSTYYADSVKGRFTISRDNSKNTLYLQMNSLRAEDTAVYYCARYWPMSLWGQGTLVTVSS
VL: EIVLTQSPGTLSLSPGERATLSCRASQSVSAYYLAWYQQKPGQAPRLLMYDASIRATGIPDRFSGSGSGTDFTLTISRLEPEDFAVYYCQQYERWPLTFGQGTKVEIK
notes: IgG
In the assay with Cynomolgus monkey BCMA, B9 had a Kd of 0.401 nM, a koff of 0.000583 s⁻¹ and a kon of 1.45e+06 M⁻¹ s⁻¹. In the assay with Human BCMA [1], this molecule came in with a Kd of 0.03 nM, a koff of 9.2e-05 s⁻¹ and a kon of 3.11e+06 M⁻¹ s⁻¹.

B10: A02_Rd4_6nM_C04 (antibody, V domains shown)
VH: EVQLLESGGGLVQPGGSLRLSCAASGFTFSSYAMNWVRQAPGKGLEWVSAIMSSGGPLYYADSVKGRFTISRDNSKNTLYLQMNSLRAEDTAVYYCARYWPMALWGQGTLVTVSS
VL: EIVLTQSPGTLSLSPGERATLSCRASQSVSALYLAWYQQKPGQAPRLLMYDASIRATGIPDRFSGSGSGTDFTLTISRLEPEDFAVYYCQQYQVWPLTFGQGTKVEIK
notes: IgG
In the assay with Cynomolgus monkey BCMA, B10 returned a Kd of 0.381 nM, a koff of 0.000831 s⁻¹ and a kon of 2.18e+06 M⁻¹ s⁻¹. For the same molecule, in the assay with Human BCMA [1], the Kd is 0.135 nM, the koff is 0.000603 s⁻¹ and the kon came to 4.47e+06 M⁻¹ s⁻¹.

B11: A02_Rd4_0.6nM_C13 (antibody, V domains shown)
VH: EVQLLESGGGLVQPGGSLRLSCAASGFTFSSYAMNWVRQAPGKGLEWVSAISDSGGYRYYADSVKGRFTISRDNSKNTLYLQMNSLRAEDTAVYYCARYWPMSLWGQGTLVTVSS
VL: EIVLTQSPGTLSLSPGERATLSCRASQSVSSSYWAWYQQKPGQAPRLLMYDASIRATGIPDRFSGSGSGTDFTLTISRLEPEDFAVYYCQQYESWPLTFGQGTKVEIK
notes: IgG
In the assay with Cynomolgus monkey BCMA, B11 displayed a Kd of 0.56 nM, a koff of 0.00128 s⁻¹ and a kon of 2.29e+06 M⁻¹ s⁻¹. Also, in the assay with Human BCMA [1], binding was put at a Kd of 0.066 nM, the koff was 0.000566 s⁻¹ and the kon was 8.53e+06 M⁻¹ s⁻¹.

B12: L3.PY/L3.KY/H3.TAQ (antibody, V domains shown)
VH: EVQLLESGGGLVQPGGSLRLSCAASGFTFGSYAMTWVRQAPGKGLEWVSAISGSGGNTFYADSVKGRFTISRDNSKNTLYLQMNSLRAEDTAVYYCTRVSPIAAQMDYWGQGTLVTVSS
VL: EIVLTQSPGTLSLSPGERATLSCRASQSVSSSYLAWYQQKPGQAPRLLIYGASSRATGIPDRFSGSGSGTDFTLTISRLEPEDFAVYYCKYYPYPPSFTFGQGTKVEIK
notes: IgG
As for B12, in the assay with Human BCMA [2], the Kd came to 0.23 nM, the “T ½” value is 17.8 min, the koff came out at 0.000649 s⁻¹ and the kon was 2.79e+06 M⁻¹ s⁻¹.

B13: L3.PY/L3.KY/H3.YA (antibody, V domains shown)
VH: EVQLLESGGGLVQPGGSLRLSCAASGFTFGSYAMTWVRQAPGKGLEWVSAISGSGGNTFYADSVKGRFTISRDNSKNTLYLQMNSLRAEDTAVYYCARVSPIYAGMDYWGQGTLVTVSS
VL: EIVLTQSPGTLSLSPGERATLSCRASQSVSSSYLAWYQQKPGQAPRLLIYGASSRATGIPDRFSGSGSGTDFTLTISRLEPEDFAVYYCKYYPYPPSFTFGQGTKVEIK
notes: IgG
B13: in the assay with Human BCMA [2], the Kd came to 0.28 nM, the “T ½” value came out at 12.7 min, the koff was 0.000912 s⁻¹ and the kon was 3.3e+06 M⁻¹ s⁻¹.

As a reminder, the Kd is the constant that tells how readily two partners part at equilibrium. A word on the koff: it is the rate constant with which the complex falls apart. One may read the kon as the second-order rate constant of association.

For the origin of these results see patent publication US20160297884A1 (Pfizer, published 2016).
